Measurements taken from patent publication US20130266576A1 (Novo Nordisk, published 2013).

T1: B-domain deleted factor VIII (FVIII) (human, UniProt P00451 20-759; P00451 1668-2351)
T1 sequence 1: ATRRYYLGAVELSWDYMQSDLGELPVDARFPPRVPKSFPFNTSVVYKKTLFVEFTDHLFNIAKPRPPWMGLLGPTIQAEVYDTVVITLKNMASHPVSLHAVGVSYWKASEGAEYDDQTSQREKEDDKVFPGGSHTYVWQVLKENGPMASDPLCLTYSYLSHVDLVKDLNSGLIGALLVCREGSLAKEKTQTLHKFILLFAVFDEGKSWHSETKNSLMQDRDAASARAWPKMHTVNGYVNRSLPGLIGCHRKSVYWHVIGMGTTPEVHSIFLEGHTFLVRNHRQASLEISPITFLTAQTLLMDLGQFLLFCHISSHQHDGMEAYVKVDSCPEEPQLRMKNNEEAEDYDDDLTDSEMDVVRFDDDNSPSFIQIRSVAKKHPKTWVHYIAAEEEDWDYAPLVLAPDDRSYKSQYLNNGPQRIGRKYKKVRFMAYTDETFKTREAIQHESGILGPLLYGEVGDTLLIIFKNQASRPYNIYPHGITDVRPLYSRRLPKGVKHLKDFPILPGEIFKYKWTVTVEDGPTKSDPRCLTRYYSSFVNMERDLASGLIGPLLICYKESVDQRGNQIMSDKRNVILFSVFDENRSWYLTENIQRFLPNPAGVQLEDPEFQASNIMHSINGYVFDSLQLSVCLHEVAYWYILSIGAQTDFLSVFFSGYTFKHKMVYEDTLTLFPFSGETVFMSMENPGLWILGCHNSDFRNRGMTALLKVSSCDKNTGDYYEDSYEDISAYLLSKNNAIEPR
T1 sequence 2: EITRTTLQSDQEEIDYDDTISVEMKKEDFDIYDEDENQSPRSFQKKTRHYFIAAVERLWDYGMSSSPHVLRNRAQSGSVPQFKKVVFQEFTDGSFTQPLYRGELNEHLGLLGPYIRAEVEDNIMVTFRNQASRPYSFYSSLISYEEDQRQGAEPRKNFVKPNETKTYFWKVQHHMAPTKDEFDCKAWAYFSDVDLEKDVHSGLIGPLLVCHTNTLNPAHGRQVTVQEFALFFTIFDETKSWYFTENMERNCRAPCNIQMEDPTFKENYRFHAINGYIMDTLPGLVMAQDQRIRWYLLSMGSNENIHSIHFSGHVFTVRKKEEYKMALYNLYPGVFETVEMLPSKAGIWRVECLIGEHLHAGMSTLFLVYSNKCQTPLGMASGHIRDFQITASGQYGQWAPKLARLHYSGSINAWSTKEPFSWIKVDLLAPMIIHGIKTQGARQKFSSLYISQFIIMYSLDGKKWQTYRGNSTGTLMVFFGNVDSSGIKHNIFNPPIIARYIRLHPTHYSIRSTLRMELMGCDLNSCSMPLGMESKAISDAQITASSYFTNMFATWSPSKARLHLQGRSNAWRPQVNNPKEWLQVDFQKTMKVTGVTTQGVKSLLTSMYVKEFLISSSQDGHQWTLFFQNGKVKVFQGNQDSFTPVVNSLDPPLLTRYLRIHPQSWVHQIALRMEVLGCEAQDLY


Tests used:
[1] = molecular target: T1, B-domain deleted factor VIII (FVIII); experiment: cell-based or functional assay
[2] = molecular target: T1, B-domain deleted factor VIII (FVIII); experiment: SPR (Biacore 3000), antibody captured by rabbit anti-mouse IgG, FVIII as analyte; Kd = koff/kon
Protocol: (§1) The kinetics of FVIII binding to antibody was determined by surface plasmon resonance using a Biacore 3000 instrument. Each antibody was captured to a level of 70-110 RU in flow cell 2 of a CM5 chip coated with rabbit anti-mouse IgG antibody (GE Healthcare, Uppsala, Sweden) as described by the manufacturer. Kinetic analysis was performed at 25° C. at a flow rate of 30 μl/min in running buffer using flow cell 1 as reference. Serial two-fold dilutions of FVIII from 0 to 40 nM were analyzed. Following 3-min equilibration of the flow cells in running buffer, 150 μl FVIII were injected. The dissociation phase lasted 9 min and regeneration was performed with a 3-min pulse of 10 mM glycine, pH 1.7. The obtained reference-subtracted sensorgrams fitted well to a 1:1 Langmuir binding model which allowed for estimation of association (Kₒₙ) and dissociation (koff) rate constants and the equilibrium dissociation constant (Kd=koff/kₒₙ) using BIAevaluation 4.1 software (GE Healthcare, Uppsala, Sweden).
TABLE 2 Surface plasmon resonance analysis of the kinetics of FVIII binding to select antibodies. The listed antibodies were captured by immobilized rabbit anti-mouse IgG antibody and binding to FVIII were tested in concentrations ranging from 0 to 40 nM. […] The dissociation constrant Kd was calculated as koff/kₒₙ. […]

[3] = molecular target: T1, B-domain deleted factor VIII (FVIII); experiment: SPR (Biacore 3000), antibody captured by rabbit anti-mouse IgG, FVIII 0-40 nM as analyte, 25 C, 1:1 Langmuir fit
Protocol: as §1
TABLE 2 Surface plasmon resonance analysis of the kinetics of FVIII binding to select antibodies. The listed antibodies were captured by immobilized rabbit anti-mouse IgG antibody and binding to FVIII were tested in concentrations ranging from 0 to 40 nM. Binding curves fitted well to a 1:1 Langmuir binding isotherm which provided estimates of association (kₒₙ) and dissociation (koff) rate constants. The dissociation constrant Kd was calculated as koff/kₒₙ. Standard errors obtained from the fits are shown.

Row | Maximal level of thrombin generation, fold-increase compared to FVIII [1] [fold] | Rate of thrombin generation, fold-increase compared to FVIII [1] [fold] | Kd [2] [nM] | koff [3] [s⁻¹] | kon [3] [M⁻¹ s⁻¹] | Binder
1 | 1.7 | 1.8 | 3.5 | 0.000849 | 244000 | anti-FVIII 4F143 (antibody, mouse IgG1, V domains shown, Mouse monoclonal from hybridoma, murine IgG1 heavy chain and kappa light chain; also called Anti-FVIIIa 4F143) VH: QIQFVQSGPELKKPGETVKISCKASGYTFTNYGMNWVKQAPGKGLKWMGWINSYTGEPTYADDFKGRFAFSLETSASTAYLQINNLKNEDTATYFCARGASYAMDYWGQGTSVTVSS VL: DVQITQSPSYLAASPGETITINCRASKSISKYLAWYQEKPVKTNKLLIYSGSTLQSGIPSRFSGSGSGTDFTLTISSLEPEDFAMYYCQQHYEYPLTFGAGTKLELKR
2 | – | – | 5.6 | 0.00106 | 190000 | anti-FVIII 4F50 (antibody, mouse IgG1, V domains shown, Mouse monoclonal, murine IgG1 heavy chain and kappa light chain; also called Anti-FVIIIa 4F50) VH: QIQFVQSGPELKKPGETVKISCKASGYTFTNYGMNWVKQAPGKGLKWMGWINSYTGEPTYADDFKGRFDFSLETSASTAYLQINNLKNEDTATYFCARGASYAMDHWGQGTSVTVSS VL: DVQITQSPSYLAASPGETISINCRASKSISKYLAWYQEKPVKTNKLLIYSGSTLQSGIPSRFSGSGSGTDFTLTISSLEPEDFAMYYCQQHYEYPLTFGAGTKLELKR
